These results are taken from US20260066079A1 (published 2026).

T1: TL1A in human blood (endogenous) (human, UniProt O95150 72-251, limits assumed)
T1 sequence (looked up): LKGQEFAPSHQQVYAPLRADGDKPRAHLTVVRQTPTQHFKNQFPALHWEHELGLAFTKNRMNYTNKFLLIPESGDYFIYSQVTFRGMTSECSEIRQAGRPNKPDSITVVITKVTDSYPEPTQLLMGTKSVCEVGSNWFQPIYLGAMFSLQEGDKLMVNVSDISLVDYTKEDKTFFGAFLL

B1: A147 (antibody, human IgG1, V domains shown)
VH: QVQLVQSGAEVKKPGASVKVSCKASGFDIQDTYMHWVKQRPGQGLEWMGRIEPASGHIKYDPKFQGRVTMTRDTSTSTVYMELSSLRSEDTAVYYCARSGGLPDWWGQGTTVTVSS
VL: EIVLTQSPGTLSLSPGERATLSCRASSSVSYMYWYQQKPGQAPRPLIYATSNLASGIPDRFSGSGSGTDFTLTISRLEPEDFAVYYCQQWEGNPRTFGGGTKLEIK
B2: A213 (antibody, human IgG1, V domains shown)
VH: QVQLVQSGAEVKKPGASVKVSCKASGFDIQDTYMHWVRQRPGQGLEWMGRIDPASGHTKYDPKFQVRVTITTDTSTSTVYMELSSLRSEDTAVYYCARSGGLPDVWGQGTTVTVSS
VL: EIVLTQSPGTLSLSPGERATLSCRASSSVSYMYWYQQKPGQAPRPLIYATSNLASGIPDRFSGSGSGTDFTLTISRLEPEDFAVYYCQQWEGNPRTFGGGTKLEIK
B3: A220 (antibody, human IgG1, V domains shown)
VH: QVQLVQSGAEVKKPGASVKVSCKASGFDIQDTYMHWVKQRPGQGLEWMGRIDPASGHTKYDPKFQVRVTMTRDTSTSTAYLELSSLRSEDTAVYYCARSGGLPDVWGQGTTVTVSS
VL: EIVLTQSPGTLSLSPGERATLSCRASSSVSYMYWYQQKPGQAPRPWIYATSNLASGIPDRFSGSGSGTDFTLTISRLEPEDFAVYYCQQWEGNPRTFGGGTKLEIK
B4: A212 (antibody, human IgG1, V domains shown)
VH: QVQLVQSGAEVKKPGASVKVSCKASGFDIQDTYMHWVRQRPGQGLEWIGRIDPASGHTKYDPKFQVRATITTDTSTSTAYLELSSLRSEDTAVYYCARSGGLPDVWGQGTTVTVSS
VL: EIVLTQSPGTLSLSPGERATLSCRASSSVSYMYWYQQKPGQAPRPLIYATSNLASGIPDRFSGSGSGTDFTLTISRLEPEDFAVYYCQQWEGNPRTFGGGTKLEIK
B5: A217 (antibody, human IgG1, V domains shown)
VH: QVQLVQSGAEVKKPGASVKVSCKASGFDIQDTYMHWVKQRPGQGLEWMGRIDPASGHTKYDPKFQVRVTITRDTSTSTVYMELSSLRSEDTAVYYCARSGGLPDVWGQGTTVTVSS
VL: EIVLTQSPGTLSLSPGERATLSCRASSSVSYMYWYQQKPGQAPRPLIYATSNLASGIPDRFSGSGSGTDFTLTISRLEPEDFAVYYCQQWEGNPRTFGGGTKLEIK
B6: A219 (antibody, human IgG1, V domains shown)
VH: QVQLVQSGAEVKKPGASVKVSCKASGFDIQDTYMHWVKQRPGQGLEWMGRIDPASGHTKYDPKFQVRVTITRDTSTSTVYLELSSLRSEDTAVYYCARSGGLPDVWGQGTTVTVSS
VL: EIVLTQSPGTLSLSPGERATLSCRASSSVSYMYWYQQKPGQAPRPLIYATSNLASGIPDRFSGSGSGTDFTLTISRLEPEDFAVYYCQQWEGNPRTFGGGTKLEIK

For this assay, the target named is T1, TL1A in human blood (endogenous). Nature of the assay: cell-based or functional assay.
Usually % Inhibition stands for the share of the control response that was lost under treatment. With B1, the “% Inhibition at 1 nM Ig (inhibition of interferon gamma release in human blood)” value (“% Inhibition at 1 nM Ig” for short) was determined as 51.3% and the “% Inhibition at 10 nM Ig (inhibition of interferon gamma release in human blood)” value (“% Inhibition at 10 nM Ig” for short) was 72.4%.

As for B2, the “% Inhibition at 1 nM Ig” value is 48.6% and the “% Inhibition at 10 nM Ig” value stood at 69.8%.

In the case of B3, the “% Inhibition at 1 nM Ig” value was found to be 36.9% and the “% Inhibition at 10 nM Ig” value stood at 63.2%.

As for B4, the “% Inhibition at 1 nM Ig” value amounted to 46.8% and the “% Inhibition at 10 nM Ig” value worked out at 71.2%.

Consider B5, for which the “% Inhibition at 1 nM Ig” value was 46% and the “% Inhibition at 10 nM Ig” value came to 72.2%.

For B6, the “% Inhibition at 1 nM Ig” value was 59.8% and the “% Inhibition at 10 nM Ig” value was 75.2%.
